Laboratory results: article PMC3600295

How the values were obtained:
human alpha-thrombin [1] = molecular target: T1, human alpha-thrombin (Homo sapiens, UniProt P00734;P00734 315-363;364-622); assay: potentiometric aptasensor; SWCNT transducer; LOD 80 nM, 8.03 mV/decade (not a Kd); PBS listed as reagent; salt, pH and temperature of the potentiometric assay not given in the material
human alpha-thrombin [2] = molecular target: T1, human alpha-thrombin; assay: potentiometric aptasensor; PANI transducer; LOD 71 nM, 2.97 mV/decade (not a Kd); PBS listed as reagent; salt, pH and temperature of the potentiometric assay not given in the material

Binder | binding result (human alpha-thrombin [1]) | binding result (human alpha-thrombin [2])
GGTTGGTGTGGTTGG (structured_DNA, 5'-NH2, coupled to SWCNT carboxyl groups) [TBA 15-mer, 5'-NH2 (SWCNT sensor)] | binds | 
GGTTGGTGTGGTTGG (structured_DNA, 5'-SH, coupled to polyaniline) [TBA 15-mer, 5'-SH (PANI sensor)] |  | binds
